Laboratory results: the supplement of paper PMC9233669
This sample holds only a part of the variants without activity.

Columns and labels:
[1] = tested on: biotinyl-Phe-oxazolone; experiment: self-aminoacylation, catalytic enhancement (BFO) (fold over background); higher = more active; k-Seq, kA / k0A0; sequences stand for … in GGGAAUGGAUCCACAUCUACGAAUUC…UUCACUGCAGACUUGACGAAGCUG
Method in brief: (§1)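 Catalytic enhancement equals the median kA over the uncatalyzed rate, the latter read from the low-activity peak of a bimodal Gaussian fit. Values of kA came from fitting each sequence's fraction reacted to a pseudo-first-order model, with 1000 bootstraps. Reacted RNA was captured with streptavidin and quantified by triplicate qPCR and Illumina sequencing after 90 minutes at room temperature with 2–1250 μM biotinyl-aminoacyl-oxazolone and 0.43 μM mutagenized RNA pools bearing a 21-nt variable region.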

[2] = tested on: biotinyl-Ile-oxazolone; experiment: self-aminoacylation, catalytic enhancement (BIO) (fold over background); higher = more active; k-Seq, kA / k0A0; sequences stand for … in GGGAAUGGAUCCACAUCUACGAAUUC…UUCACUGCAGACUUGACGAAGCUG
Method in brief: as §1

[3] = tested on: biotinyl-Met-oxazolone; experiment: self-aminoacylation, catalytic enhancement (BMO) (fold over background); higher = more active; k-Seq, kA / k0A0; sequences stand for … in GGGAAUGGAUCCACAUCUACGAAUUC…UUCACUGCAGACUUGACGAAGCUG
Method in brief: as §1

[4] = tested on: biotinyl-Val-oxazolone; experiment: self-aminoacylation, catalytic enhancement (BVO) (fold over background); higher = more active; k-Seq, kA / k0A0; sequences stand for … in GGGAAUGGAUCCACAUCUACGAAUUC…UUCACUGCAGACUUGACGAAGCUG
Method in brief: as §1

[5] = tested on: biotinyl-Leu-oxazolone; experiment: self-aminoacylation, catalytic enhancement (BLO) (fold over background); higher = more active; k-Seq, kA / k0A0; sequences stand for … in GGGAAUGGAUCCACAUCUACGAAUUC…UUCACUGCAGACUUGACGAAGCUG
Method in brief: as §1

[6] = tested on: biotinyl-Trp-oxazolone; experiment: self-aminoacylation, catalytic enhancement (BWO) (fold over background); higher = more active; k-Seq, kA / k0A0; sequences stand for … in GGGAAUGGAUCCACAUCUACGAAUUC…UUCACUGCAGACUUGACGAAGCUG
Method in brief: as §1

| Sequence | self-aminoacylation [1] | self-aminoacylation [2] | self-aminoacylation [3] | self-aminoacylation [4] | self-aminoacylation [5] | self-aminoacylation [6] |
| --- | --- | --- | --- | --- | --- | --- |
| CUUCACCUAGGUCAGCGGGUG [Fam2.2 aminoacylation ribozyme variant] | 9.81 | 3.62 | 3.27 | 3.88 | 4.96 | 4.01 |
| CCAAAAUUCAAGCAAUCGGUC [Fam1B.1 aminoacylation ribozyme variant] | 1.09 | 1.17 | 1.01 | 1.21 | 1.08 | 1.13 |
| AUUACCCUGGUCAUCUAGAGA [Fam2.1 aminoacylation ribozyme variant] | 0.684 | 1.04 | 0.865 | 1.03 | 0.887 | 0.6 |
| AAUUUUGCUAAUAGUCGCAGG [Fam3.1 aminoacylation ribozyme variant] | 2.65 | 1.89 | 1.76 | 1.83 | 1.98 | 2.05 |
| CCUCACUGCAAGCAAUCGGUC [Fam1B.1 aminoacylation ribozyme variant] | 1.44 | 1.26 | 0.832 | 1.41 | 1.24 | 1.17 |
| CUACAUCAAACAAUCGGUCUC [Fam1A.1 aminoacylation ribozyme variant] | 1.64 | 0.575 | 0.683 | 0.779 | 0.532 | 0.882 |
| AUUCACCUCGGUCAUCGGGAG [Fam2.2 aminoacylation ribozyme variant] | 0.478 | 1.02 | 1.39 | 1.22 | 1.63 | 1.17 |
| CCACACUUCAACCAAUCGGAC [Fam1B.1 aminoacylation ribozyme variant] | 2.28 | 0.897 | 0.789 | 1.02 | 0.981 | 1.26 |
| AUUACCCUGAUGAUCGAGUGA [Fam2.1 aminoacylation ribozyme variant] | 79.7 | 5.5 | 12.7 | 5.25 | 13 | 14.4 |
| AUUUCCCUGGUCGUCGAGUGA [Fam2.1 aminoacylation ribozyme variant] | 4.18 | 1.06 | 1.12 | 1.08 | 1.21 | 1.55 |
| AUUUCCCCGGUCAUCGAGUGA [Fam2.1 aminoacylation ribozyme variant] | 32.5 | 3.34 | 5.69 | 3.65 | 5.8 | 8.04 |
| GAACACUUCAAGCAAUCGGUC [Fam1B.1 aminoacylation ribozyme variant] | 23.3 | 2.05 | 1.53 | 2.03 | 1.96 | 18.6 |
| AUUACGCUGGUCAUCGAGUUA [Fam2.1 aminoacylation ribozyme variant] | 0.893 | 1.28 | 1.54 | 1.43 | 1.41 | 0.917 |
| AUGCACCUAGGUCAACGGGUG [Fam2.2 aminoacylation ribozyme variant] | 14.2 | 2.45 | 2.51 | 1.95 | 2.68 | 2.21 |
| AUUUACCUAGGUGAUCGGGUG [Fam2.2 aminoacylation ribozyme variant] | 15 | 2.46 | 2.64 | 2.45 | 3.24 | 2.89 |
| CCACACUUCAUGCAAUCGCUC [Fam1B.1 aminoacylation ribozyme variant] | 0.603 | 0.99 | 1.36 | 1.06 | 1.1 | 0.588 |
| AUUACACUGGUCAUCGUGUGA [Fam2.1 aminoacylation ribozyme variant] | 13.8 | 1.75 | 3.15 | 1.56 | 2.8 | 3 |
| CUACUUUAAAUAAUCGGUCUG [Fam1A.1 aminoacylation ribozyme variant] | 1.03 | 0.923 | 0.869 | 0.902 | 0.82 | 0.885 |
| AUUCUCCUAGGUCGUCGGGUG [Fam2.2 aminoacylation ribozyme variant] | 12.2 | 2.55 | 2.72 | 2.38 | 2.85 | 2.28 |
| CCACACUUCAAGCAAUCGCUA [Fam1B.1 aminoacylation ribozyme variant] | 1.05 | 1.41 | 1.22 | 1.94 | 1.44 | 1.27 |
| AUUACCCUUGUCAUCGAAUGA [Fam2.1 aminoacylation ribozyme variant] | 0.805 | 0.946 | 0.839 | 1.09 | 0.89 | 0.552 |
| AAUCACCCAGGUCAUCGGGUG [Fam2.2 aminoacylation ribozyme variant] | 27.9 | 4.58 | 4.82 | 4.93 | 3.76 | 6.23 |
| AUUCACCUAAGUCAUCCGGUG [Fam2.2 aminoacylation ribozyme variant] | 63.4 | 5.54 | 9.71 | 5.61 | 12.2 | 10.3 |
| AUUCACCUAGGGCAGCGGGUG [Fam2.2 aminoacylation ribozyme variant] | 39.8 | 5.78 | 7.29 | 4.76 | 7.39 | 7.98 |
| AUUACCCUGGUGAUCGAGAGA [Fam2.1 aminoacylation ribozyme variant] | 0.65 | 1.33 | 1.24 | 0.92 | 0.908 | 0.417 |
| CUUCUUCAAACUAUCGGUCUG [Fam1A.1 aminoacylation ribozyme variant] | 1.22 | 1.26 | 0.943 | 1.01 | 1 | 0.962 |

| Sequence | self-aminoacylation [1] | self-aminoacylation [2] | self-aminoacylation [3] | self-aminoacylation [4] | self-aminoacylation [5] | self-aminoacylation [6] |
| --- | --- | --- | --- | --- | --- | --- |
| AUUACCCUGGUCACUGAGUGA [Fam2.1 aminoacylation ribozyme variant] | 10.5 | 2.75 | 3.91 | 2.75 | 3.91 | 4.62 |
| AAUCACCUAAGUCAUCGGGUG [Fam2.2 aminoacylation ribozyme variant] | 44.5 | 4.89 | 6.3 | 4.44 | 7.68 | 7.91 |
| CCACACAUCAACCAAUCGGUC [Fam1B.1 aminoacylation ribozyme variant] | 1.2 | 0.785 | 0.622 | 0.745 | 0.487 | 1.26 |
| AUUACCGUGGUCAUUGAGUGA [Fam2.1 aminoacylation ribozyme variant] | 28.2 | 3.37 | 5.36 | 3.21 | 6 | 7.1 |
| AUUCACCUAGGACAUCGGGCG [Fam2.2 aminoacylation ribozyme variant] | 15.1 | 2.31 | 2.2 | 2.38 | 2.79 | 2.27 |
| AAGUUUGCUAACUGUCGCAAG [Fam3.1 aminoacylation ribozyme variant] | 0.773 | 0.784 | 1.01 | 0.79 | 1 | 0.984 |
| UUUCACCUAGGUCAUCGCGUG [Fam2.2 aminoacylation ribozyme variant] | 84 | 6.66 | 9.16 | 6.67 | 11.4 | 9.42 |
| AUUACCUUGGGCAUCGAGUGA [Fam2.1 aminoacylation ribozyme variant] | 17.4 | 2.87 | 5.33 | 2.91 | 5.27 | 6.65 |
| AAUCACCUAGGUCAUCGGGUC [Fam2.2 aminoacylation ribozyme variant] | 7.16 | 1.79 | 1.81 | 1.63 | 1.37 | 1.21 |
| CCAUACUUCAAGCUAUCGGUC [Fam1B.1 aminoacylation ribozyme variant] | 0.984 | 1.05 | 0.801 | 1.09 | 0.952 | 0.697 |
| AAUCACCUAGGUCGUCGGGUG [Fam2.2 aminoacylation ribozyme variant] | 7.97 | 2.12 | 2.21 | 2.19 | 3.25 | 1.34 |
| AUUCACAUAGGACAUCGGGUG [Fam2.2 aminoacylation ribozyme variant] | 17.7 | 2.84 | 3.84 | 3.22 | 4.24 | 3.93 |
| AUUACCCUGGUCUUCGAUUGA [Fam2.1 aminoacylation ribozyme variant] | 0.383 | 0.769 | 0.723 | 0.779 | 0.67 | 0.41 |
| CCACCCUUCAAGUAAUCGGUC [Fam1B.1 aminoacylation ribozyme variant] | 7.55 | 1.15 | 1.18 | 1.25 | 1.13 | 7.3 |
| GUACUUCAAACAAUCGGUCAG [Fam1A.1 aminoacylation ribozyme variant] | 7.14 | 1.5 | 1.31 | 1.34 | 1.43 | 7.34 |
| CUACUUCAAAUAAUGGGUCUG [Fam1A.1 aminoacylation ribozyme variant] | 0.624 | 0.875 | 0.956 | 0.814 | 1.01 | 0.583 |
| AUUACCCCGGUCAUCGAGUGA [Fam2.1 aminoacylation ribozyme variant] | 27.9 | 2.93 | 5.35 | 3.2 | 5.4 | 6.34 |
| AAGUUUGCAAAUCGUCGCAAG [Fam3.1 aminoacylation ribozyme variant] | 0.933 | 1.09 | 0.985 | 0.93 | 1.18 | 1.21 |
| AAGUUUGCUCUUAGUCGCAAG [Fam3.1 aminoacylation ribozyme variant] | 1.53 | 0.73 | 0.758 | 0.813 | 0.786 | 0.65 |
| CUACAUCAAACAAUCGGUGUG [Fam1A.1 aminoacylation ribozyme variant] | 0.672 | 0.722 | 1.03 | 0.803 | 1.16 | 0.626 |
| AAGUUUGCUAAUAUUCGCAAC [Fam3.1 aminoacylation ribozyme variant] | 0.972 | 1.15 | 1.22 | 1.17 | 1.11 | 2.36 |
| CAACUUCAAACAACCGGUCUG [Fam1A.1 aminoacylation ribozyme variant] | 3.54 | 1.24 | 1.11 | 1.32 | 1.14 | 1.75 |
| CCACACUUCAAGCCAUCGGUC [Fam1B.1 aminoacylation ribozyme variant] | 0.854 | 0.995 | 0.95 | 1.24 | 0.986 | 0.932 |
| UGACACUUCAAGCAAUCGGUC [Fam1B.1 aminoacylation ribozyme variant] | 21.5 | 1.84 | 1.33 | 1.37 | 1.89 | 14.5 |
| AAGUUUGCUAAUUGUCGCGAG [Fam3.1 aminoacylation ribozyme variant] | 17.4 | 2.04 | 1.75 | 1.68 | 2.02 | 2.7 |
